Test results reported in paper PMC2647316 (Nucleic Acids Research, 2008).

Target: T1, GkDnaC R344A (Geobacillus kaustophilus HTA426, UniProt Q5KU75 1-454, R344A)
T1 sequence: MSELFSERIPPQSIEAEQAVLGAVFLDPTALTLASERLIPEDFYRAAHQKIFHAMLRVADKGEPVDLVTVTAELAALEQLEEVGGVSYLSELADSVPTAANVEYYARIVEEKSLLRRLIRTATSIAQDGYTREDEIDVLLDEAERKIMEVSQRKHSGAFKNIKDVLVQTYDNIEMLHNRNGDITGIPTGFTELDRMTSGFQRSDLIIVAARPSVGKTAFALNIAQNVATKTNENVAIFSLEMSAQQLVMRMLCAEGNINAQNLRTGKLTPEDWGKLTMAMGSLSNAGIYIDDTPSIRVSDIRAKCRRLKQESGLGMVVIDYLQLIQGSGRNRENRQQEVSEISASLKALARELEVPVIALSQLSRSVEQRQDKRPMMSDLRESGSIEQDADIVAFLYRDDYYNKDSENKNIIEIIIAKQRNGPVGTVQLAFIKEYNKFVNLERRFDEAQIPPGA
Assay: SPR

## TTTTTTTTTTTTTTTTTTTTTTTTTTTTTT (ssDNA) [5'Bio-(dT)30]
  Kd: 17.9 µM
